Reference: paper PMC4497383

Target: 3xFLAG-tagged nascent chain of Sec61β with the transferrin receptor TMD, truncated at position 128 (TMD exposed)
Assay: co-IP; unbound fractions of the translation reactions after anti-FLAG purification of the RNCs, immunoblotted relative to serial dilutions of total lysate (depletion)

percent of SRP in the lysate depleted: 90%
Substance: SRP54 subunit of the signal recognition particle (SRP) (from UniProt G1STX4 1-499) (natural protein)
